The text below walks through data of paper PMC8379176 (Nature Communications, 2021).

As usually defined, the pKd is the Kd on a negative log10 scale, so that one unit is a factor of ten.

Holding throughout (assay): AlphaScreen or HTRF; saturation binding on HEK293 cells transfected with SNAP-ghrelin receptor (WT or mutants) labelled with SNAP-Lumi4-Tb; increasing concentrations of ghrelin-A2 in the presence or absence of 10 uM unlabeled ghrelin, 1 h at R.T.; HTRF ratio 665 nm/620 nm; one Kd for each of three experiments
In general terms: In Alpha technology, singlet oxygen from a donor bead excites a nearby acceptor bead.

Assay [1] addresses N-terminal-SNAP-tagged ghrelin receptor F312A (human) (UniProt Q92847).
Assay [2] deals with N-terminal-SNAP-tagged ghrelin receptor Q302A (human) (UniProt Q92847).
Assay [3] deals with N-terminal-SNAP-tagged ghrelin receptor, wild type (human) (UniProt Q92847).

pKd: −log10 of the molar value.

With “ghrelin-A2 (full-length ghrelin labeled with the dye A2 on an additional cysteine at the C-terminal end) (peptide)”, the pKd in assay [1] is 7.11; in assay [2] it was below 6.30; in assay [3] it was 7.96.
